Measured values taken from the supplement of paper PMC10598134.
± gives the standard deviation.

Test: collision cross section of modified peptide (TIMS, N2, iRT-aligned); higher = larger / more extended gas-phase ion
Procedure, shortened: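 On a timsTOF Pro/HT (dda-PASEF, nitrogen, ~2.4 mbar), synthetic peptide pools were analysed after a 120-min nanoflow C18 separation at 60 °C and identified in MaxQuant. Three reference ions served for 1/K0 calibration, with run-wise alignment to the median iRT peptide deviation. Collision cross section comes from the Mason-Schamp equation, using the most abundant feature per charge state averaged over 1–3 technical replicates.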

[1] = charge state: 2, modification: Citrullination (R)
[2] = charge state: 3, modification: Citrullination (R)
[3] = charge state: 2, modification: GlyGly (K)
[4] = charge state: 3, modification: GlyGly (K)
[5] = charge state: 2, modification: Biotin
[6] = charge state: 3, modification: Biotin
[7] = charge state: 2, modification: Glutarylation
[8] = charge state: 2, modification: Formyl
[9] = charge state: 3, modification: Glutarylation
[10] = charge state: 2, modification: Acetyl (K)
[11] = charge state: 3, modification: Acetyl (K)
[12] = charge state: 2, modification: Phospho (Y)
[13] = charge state: 3, modification: Phospho (Y)
[14] = charge state: 2, modification: hydroxyisobutyryl
[15] = charge state: 2, modification: Nitro (Y)
[16] = charge state: 2, modification: Butyryl
[17] = charge state: 2, modification: Methyl (K)
[18] = charge state: 3, modification: Methyl (K)
[19] = charge state: 2, modification: Hydroxyproline
[20] = charge state: 2, modification: Crotonyl
[21] = charge state: 2, modification: Dimethyl (K)
[22] = charge state: 3, modification: Dimethyl (K)
[23] = charge state: 3, modification: Succinyl
[24] = charge state: 2, modification: HexNAc (ST)
[25] = charge state: 2, modification: Succinyl

Sequence “FSHSVQNSERGK [_FSHSVQNSER(Citrullination (R))GK_]” has a collision cross section [1] of 390.38 ± 0.44 Å² and a collision cross section [2] of 441.33 ± 1.8 Å².
With SEASSEFAKK [_SEASSEFAK(GlyGly (K))K_] the collision cross section [3] was 362.55 ± 0.39 Å² and the collision cross section [4] was 429.79 ± 1.1 Å².
Sequence AAINQKLIETGER [_AAINQK(Biotin)LIETGER_] has a collision cross section [5] of 426.96 ± 1.5 Å² and a collision cross section [6] of 497.24 Å².
Sequence VGEFSGANKEK [_VGEFSGANK(Biotin)EK_] has a collision cross section [5] of 386.08 Å².
Sequence “IVSGKDYNVTANSK [_IVSGK(GlyGly (K))DYNVTANSK_]” has a collision cross section [3] of 423.62 ± 2 Å² and a collision cross section [4] of 476.53 ± 2.2 Å².
In the case of “PGGEGPQCEKTTDVK [_PGGEGPQCEK(Gluratylation)TTDVK_]”, the collision cross section [7] is reported as 428.07 ± 0.56 Å².
Sequence TEVLSPNSKVESK [_TEVLSPNSK(Formyl)VESK_] has a collision cross section [8] of 404.6 ± 5.2 Å² and a collision cross section (charge state: 3, modification: Formyl) of 443.86 ± 4.1 Å².
Sequence “AAQASDLEKIHLDEK [_AAQASDLEK(Gluratylation)IHLDEK_]” has a collision cross section [7] of 471.95 ± 1.5 Å² and a collision cross section [9] of 503.34 ± 1 Å².
Sequence “VEPIHAVVLPRGK [_VEPIHAVVLPR(Citrullination (R))GK_]” has a collision cross section [1] of 406.23 ± 0.55 Å² and a collision cross section [2] of 492.34 ± 18 Å².
In the case of “DAIHFYNKSLAEHR [_DAIHFYNK(Acetyl (K))SLAEHR_]”, the collision cross section [10] is reported as 449.95 Å² and the collision cross section [11] is reported as 504.71 ± 0.24 Å².
YTQVGPDHNR [_Y(Phospho (Y))TQVGPDHNR_] gave a collision cross section [12] of 363.13 ± 0.064 Å² and a collision cross section [13] of 430.78 Å².
For “LQDVSGQLSSSKK [_LQDVSGQLSSSK(Propionyl)K_]”, the collision cross section (charge state: 2, modification: Propionyl) was 399.52 ± 0.65 Å² and the collision cross section (charge state: 3, modification: Propionyl) was 471.63 Å².
“DKALPLEAEVAPVK [_DK(hydroxyisobutyryl)ALPLEAEVAPVK_]” showed a collision cross section [14] of 422.26 ± 0.83 Å².
“VQGGALEDSQLVAGVAFKK [_VQGGALEDSQLVAGVAFK(Trimethyl (K))K_]” gave a collision cross section (charge state: 2, modification: Trimethyl (K)) of 515.46 ± 1.1 Å² and a collision cross section (charge state: 3, modification: Trimethyl (K)) of 564.46 ± 0.92 Å².
LTEKELAEAASK [_LTEK(Formyl)ELAEAASK_] showed a collision cross section [8] of 382.92 ± 0.9 Å².
CQGGQETQEYR [_CQGGQETQEY(Nitro (Y))R_] showed a collision cross section [15] of 375.36 ± 1.3 Å².
For LGILPVGRGK [_LGILPVGR(Methyl (R))GK_], the collision cross section (charge state: 2, modification: Methyl (R)) was 355.35 ± 1.4 Å² and the collision cross section (charge state: 3, modification: Methyl (R)) was 437.92 Å².
With GEVQVSDKER [_GEVQVSDK(Formyl)ER_] the collision cross section [8] was 353.55 ± 2.5 Å².
Sequence VELCSFSGYK [_VELCSFSGY(Phospho (Y))K_] has a collision cross section [12] of 372.99 ± 0.08 Å².
Sequence LGSPSGKTGTCR [_LGSPSGK(Butyryl)TGTCR_] has a collision cross section [16] of 373.24 ± 0.22 Å².
Work on “DESFLGKLGGTLAR [_DESFLGK(Formyl)LGGTLAR_]” yielded a collision cross section [8] of 408.46 ± 1.1 Å².
Sequence “GTVPDDAVEALADSLGKK [_GTVPDDAVEALADSLGK(Methyl (K))K_]” has a collision cross section [17] of 482.51 ± 3.5 Å² and a collision cross section [18] of 524.02 ± 2.6 Å².
“DVNAAIAAIKTK [_DVNAAIAAIK(Methyl (K))TK_]” gave a collision cross section [17] of 392.53 ± 0.95 Å² and a collision cross section [18] of 462.62 ± 2.7 Å².
Work on “GEPGIPAIPGIRGPK [_GEPGIP(Hydroxyproline)AIPGIRGPK_]” yielded a collision cross section [19] of 382.81 ± 0.54 Å² and a collision cross section (charge state: 3, modification: Hydroxyproline) of 511.46 ± 1.2 Å².
Sequence “ALASIDSKLNQAK [_ALASIDSK(hydroxyisobutyryl)LNQAK_]” has a collision cross section [14] of 410.87 ± 9.2 Å².
GEVQVSDKER [_GEVQVSDK(Crotonyl)ER_] gave a collision cross section [20] of 363.4 ± 0.8 Å².
“AAINQKLIETGER [_AAINQK(GlyGly (K))LIETGER_]” showed a collision cross section [3] of 412.96 ± 0.98 Å² and a collision cross section [4] of 477.22 ± 1.3 Å².
In the case of YVHADAPTNK [_Y(Phospho (Y))VHADAPTNK_], the collision cross section [12] is reported as 354.72 ± 0.065 Å² and the collision cross section [13] is reported as 420.4 ± 1 Å².
“GGSGGRGVSVSSAR [_GGSGGR(Citrullination (R))GVSVSSAR_]” showed a collision cross section [1] of 361.74 ± 2.3 Å² and a collision cross section [2] of 445.09 ± 2.9 Å².
For “LQDVSGQLSSSKK [_LQDVSGQLSSSK(Dimethyl (K))K_]”, the collision cross section [21] was 407.51 ± 1.1 Å² and the collision cross section [22] was 466.01 ± 2.4 Å².
Work on “ISSNFSSIIAEKLR [_ISSNFSSIIAEK(Acetyl (K))LR_]” yielded a collision cross section [10] of 428.83 ± 3 Å² and a collision cross section [11] of 506.75 Å².
In the case of “YEQEHAAIQDKLFQVAK [_YEQEHAAIQDK(Succinyl)LFQVAK_]”, the collision cross section [23] is reported as 518.31 ± 1.6 Å².
With IISSIEQKEENK [_IISSIEQK(Crotonyl)EENK_] the collision cross section [20] was 407.53 ± 0.9 Å².
In the case of “SKHLQEQLNELK [_SK(Dimethyl (K))HLQEQLNELK_]”, the collision cross section [22] is reported as 492.51 ± 0.54 Å².
“VYIASSSGSTAIKK [_VYIASSSGSTAIK(Acetyl (K))K_]” showed a collision cross section [10] of 414.5 ± 2.5 Å² and a collision cross section [11] of 503.2 ± 1.2 Å².
For “AAGQPYEQHAK [_AAGQPY(Phospho (Y))EQHAK_]”, the collision cross section [12] was 368.83 ± 10 Å² and the collision cross section [13] was 436.55 Å².
For “DKALPLEAEVAPVK [_DK(Acetyl (K))ALPLEAEVAPVK_]”, the collision cross section [10] was 407.82 ± 5.1 Å².
For DVFISAAER [_DVFIS(HexNAc (ST))AAER_], the collision cross section [24] was 363.87 Å².
For “GGPGSTLSFVGKR [_GGPGSTLSFVGK(Crotonyl)R_]”, the collision cross section [20] was 386.64 ± 0.27 Å² and the collision cross section (charge state: 3, modification: Crotonyl) was 427.61 ± 1.6 Å².
In the case of SLEEEGAAHSGKR [_SLEEEGAAHSGK(Biotin)R_], the collision cross section [5] is reported as 428.85 Å² and the collision cross section [6] is reported as 493.19 Å².
Sequence “IPQEKCILQTDVK [_IPQEK(Crotonyl)CILQTDVK_]” has a collision cross section [20] of 433.54 Å².
Sequence “GFALVGVGSEASSKK [_GFALVGVGSEASSK(Methyl (K))K_]” has a collision cross section [17] of 437.53 ± 2.3 Å² and a collision cross section [18] of 496.87 ± 4 Å².
With YEATSVQQK [_Y(Phospho (Y))EATSVQQK_] the collision cross section [12] was 348.75 ± 0.066 Å².
“LLIVSTTPYSEKDTK [_LLIVSTTPYSEK(Malonyl)DTK_]” showed a collision cross section (charge state: 2, modification: Malonyl) of 454.81 ± 0.99 Å² and a collision cross section (charge state: 3, modification: Malonyl) of 468.47 ± 1.2 Å².
For “GTVPDDAVEALADSLGKK [_GTVPDDAVEALADSLGK(Gluratylation)K_]”, the collision cross section [7] was 452.53 ± 1.2 Å² and the collision cross section [9] was 538.57 ± 1.8 Å².
In the case of “GEAGPTGPQGEPGVR [_GEAGPTGPQGEP(Hydroxyproline)GVR_]”, the collision cross section [19] is reported as 382.58 ± 0.36 Å².
APIISGVTK [_APIIS(HexNAc (ST))GVTK_] gave a collision cross section [24] of 340.53 ± 0.64 Å².
With VDATADYICK [_VDATADY(Nitro (Y))ICK_] the collision cross section [15] was 358.43 ± 0.17 Å².
With “STGLELETPSLVPVKK [_STGLELETPSLVPVK(Butyryl)K_]” the collision cross section [16] was 438.73 ± 0.53 Å² and the collision cross section (charge state: 3, modification: Butyryl) was 522.48 ± 2.1 Å².
Work on “STGLELETPSLVPVKK [_STGLELETPSLVPVK(Succinyl)K_]” yielded a collision cross section [25] of 449.72 ± 9.5 Å² and a collision cross section [23] of 499.21 ± 23 Å².
Sequence “SNEEGSEEKGPEVR [_SNEEGSEEK(Dimethyl (K))GPEVR_]” has a collision cross section [21] of 393.74 ± 1.1 Å² and a collision cross section [22] of 467.17 ± 0.73 Å².
In the case of IGNSYFKEEK [_IGNSYFK(GlyGly (K))EEK_], the collision cross section [3] is reported as 386.48 ± 0.54 Å² and the collision cross section [4] is reported as 442.05 ± 1.6 Å².
LEKTIDDLEEK [_LEK(Succinyl)TIDDLEEK_] showed a collision cross section [25] of 408.25 ± 0.55 Å².
Sequence LLEEEDSKLK [_LLEEEDSK(Dimethyl (K))LK_] has a collision cross section [21] of 385.27 ± 0.26 Å² and a collision cross section [22] of 435.11 ± 2.1 Å².
In the case of “VFSIISSEKELK [_VFSIISSEK(Acetyl (K))ELK_]”, the collision cross section [10] is reported as 405.7 ± 0.9 Å².
